B1: HFB11-10 (antibody, V domains shown)
VH: EVQLVETGGGLVQPKGSLKLSCAASGFRFNTNAMNWVRQAPGKDLEWVARIRSKSNNYATYYADSVKDRFTISRDDSQSMLYLQMNNVKTEDTAMYYCVRGSDNNYYYAMDYWGQGTSVTVSS
VL: DIVMTQAAPSVPVTPGESVSISCRSSKSLLHSNGNTYLYWFLQRPGQSPQLLIYRMSNLASGVPDRFSGSGSGTAFTLRISRVEAEDVGVYYCMQHLEYPFTFGSGTKLEIK
B2: HFB11-3 (antibody, V domains shown)
VH: EVQLVESGGGLVQPQGSLKLSCAASGFSFNTYAMNWVRQAPGKGLQWVARIRSKSNNYATYYADSVKDRFTISRDDSESMLYLQMNNLKTEDAAMYYCVRGKDANYFYAMDYWGQGTSVTVSS
VL: B1 VL with S105A, I111L
B3: HFB11-5 (antibody, V domains shown)
VH: EVQLVESGGGLVQPRGSLKLSCTASGFSFNAYAMNWVRQAPGKGLEWVARIRTKSNNYATYYADSVKDRFTISRDDSESMLYLQMKNLKTEDTAMYYCVRGGYGNGGYYFDYWGQGTTLTVSS
VL: B1 VL with P12T, V19A, S32R, T36S, M56I
B4: HFB11-8 (antibody, V domains shown)
VH: B1 VH with D44G, Y61H, A63V, I72V, V88L, T90A
VL: B1 VL with A75S, A85V
B5: HFB11-2 (antibody, V domains shown)
VH: EVQLVESGGGLVQPKGSLKLSCAASGFSFNTYAMNWVRQAPGKGLEWVARIRSKSNNYATYYADSVKDRFTISRDDSERMLYLQMNNLKTEDTAMYYCVRGGSYYSNHYFDYWGQGTTLTVSS
VL: B1 VL with R55Q, S105A, I111L
B6: HFB11-10 parental antibody (non-humanized) in ADCC enhanced format (antibody, V domains shown)
VH: B1 VH
VL: B1 VL
B7: HFB11-19 (antibody, V domains shown)
VH: QVQLQQSGAELVKPGASVKLSCKASGYTFTDYIIHWVKQRSGQGLEWIGWFSPRNNYVKYNERFTDKATLTADKSSNTVYMELSSLTSEDSAVYFCSRHGRNSIGFAYWGQGTLVTVSA
VL: B1 VL with H31N, F101Y, S105G
B8: HFB11-21 (antibody, V domains shown)
VH: QVQLQQPGAELVKPGASVKLSCKASGYTFISYWMHWVKQRPGRGLEWIGRIDPNSGKTKYNEKFKTKATLTVDKSSSTAYMHLNSLTSDDSAVYYCAREGWGDYWGQGTTLTVSS
VL: DIVLTQSPASLAVSLGQRATISCRASESVDNYGISFMHWYQQKPGQPPRLLIYRASNLASGIPARFSGSGSSTDFTLTINPVETDDIATYYCQQSNKDPRTFGGGTKLEIK

Where a chain is given by its changes, count along the chain named.

By IC50 is commonly meant the concentration at which inhibition is half-maximal. The low end stands for inhibition by little substance, the high end for a need for much substance. By EC50 is commonly meant the midpoint of the concentration-response curve.

The target of the first assay is T1, human CCR8 (UniProt P51685 1-355). In words: CCL1 blocking.
For the molecule B1, the IC50 is 0.428 nM. This counts as sub-nanomolar.

Another assay has as its target T1, human CCR8. In words: CCL1 blocking. The source holds these as a separate data set.
As for B2, the midpoint of inhibition, the IC50, lay at 1.3 nM.

B3 had an IC50 of 0.413 nM.

Take B1: the IC50 is 0.428 nM.

On to B4, for which half-maximal inhibition (IC50) required 0.452 nM.

The molecule B5 came in with an IC50 of 1.33 nM.

The target of another assay is T1, human CCR8. Kind of assay: FACS cell binding.
With B6, a half-maximal effect (EC50) was put at 0.37 nM.

In a further assay the target is T1, human CCR8. In words: FACS cell binding. The source holds these as a separate data set.
As to B7, the EC50 was found to be 0.86 nM. That is a sub-nanomolar value.

As for B2, the half-maximal effective concentration (EC50) turned out to be 1.63 nM.

B3 showed an EC50 of 0.49 nM. This EC50 lies about 3.3-fold lower than the previous one.

B1: the half-maximal effective concentration (EC50) came out at 0.57 nM.

In the case of B4, the half-maximal effective concentration (EC50) is 0.53 nM.

Molecule B5 registered an EC50 of 0.98 nM.

Regarding B8, a half-maximal response (EC50) required 9.05 nM. This EC50 lies about 9.2-fold higher than the previous one.

The target in the next assay is T2, mouse CCR8 (UniProt P56484 1-353).
T2 chain: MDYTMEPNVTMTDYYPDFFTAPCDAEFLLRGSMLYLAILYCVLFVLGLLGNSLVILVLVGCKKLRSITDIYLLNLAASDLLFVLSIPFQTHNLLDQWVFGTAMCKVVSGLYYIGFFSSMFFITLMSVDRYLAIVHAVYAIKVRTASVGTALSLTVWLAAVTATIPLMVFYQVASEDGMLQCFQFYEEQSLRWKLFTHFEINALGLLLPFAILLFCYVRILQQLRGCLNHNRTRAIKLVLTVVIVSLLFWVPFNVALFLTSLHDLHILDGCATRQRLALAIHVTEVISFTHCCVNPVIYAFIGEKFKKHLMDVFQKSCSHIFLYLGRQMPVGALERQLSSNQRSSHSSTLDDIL
In words: FACS cell binding.
In the case of B5, the response was half-maximal at 0.4 nM (EC50).
